Measurements from patent US20140050743A1, “BINDING PROTEINS TO INHIBITORS OF COAGULATION FACTORS” (BAYER INTELLECTUAL PROPERTY GMBH, priority 2011, published 2014).

B1: M14-G07-28: antibody, Vh SEQ ID NO: 181, Vl SEQ ID NO: 182 (antibody, listed as Homo Sapiens, V domains shown)
VH: EVQLLESGGGLVQPGGSLRLSCAASGFTFSSYAMSWVRQAPGKGLEWVGGISGSGGSTYYADSVKGRFTISRDNSKNTLYLQMNSLRAEDTAVYYCARQGRTSFYLDVWGQGTLVTVSS
VL: QSVLTQPPSASGTPGQRVTISCSGSSSNIGSYYVYWYQQLPGTAPKLLIYDNNQRPSGVPDRFSGSKSGTSASLAISGLRSEDEADYYCVAWDDSYSGHWVFGGGTKLTVL
B2: M14-G07-37: antibody, Vh SEQ ID NO: 199, Vl SEQ ID NO: 200 (antibody, listed as Homo Sapiens, V domains shown)
VH: EVQLLESGGGLVQPGGSLRLSCAASGFTFSSYAMSWVRQAPGKGLEWVSGISGSGGSTYYADSVKGRFTISRDNSKNTLYLQMNSLRAEDTAVYYCAREGETSFYLDVWGQGTLVTVSS
VL: QSVLTQPPSASGTPGQRVTISCSGSSSNIGSYYVYWYQQLPGTAPKLLIYDNNQRPSGVPDRFSGSKSGTSASLAISGLRSEDEADYYCVAWDDSWSGHWVFGGGTKLTVL
B3: M14-G07-34: antibody, Vh SEQ ID NO: 193, Vl SEQ ID NO: 194 (antibody, listed as Homo Sapiens, V domains shown)
VH: EVQLLESGGGLVQPGGSLRLSCAASGFRFSSYAMSWVRQAPGKGLEWVGGISGSGGSTYYADSVKGRFTISRDNSKNTLYLQMNSLRAEDTAVYYCARQGRTSFYLDVWGQGTLVTVSS
VL: QSVLTQPPSASGTPGQRVTISCSGSTSNIGSYYVYWYQQLPGTAPKLLIYDNRQRPSGVPDRFSGSKSGTSASLAISGLRSEDEADYYCVAWDDSLSGTWVFGGGTKLTVL
B4: M14-G07-32: antibody, Vh SEQ ID NO: 189, Vl SEQ ID NO: 190 (antibody, listed as Homo Sapiens, V domains shown)
VH: EVQLLESGGGLVQPGGSLRLSCAASGFRFSSYAMSWVRQAPGKGLEWVGGISGSGGSTYYADSVKGRFTISRDNSKNTLYLQMNSLRAEDTAVYYCARQGRTSFYLDVWGQGTLVTVSS
VL: QSVLTQPPSASGTPGQRVTISCSGSSSNIGAYYVYWYQQLPGTAPKLLIYDNRQRPSGVPDRFSGSKSGTSASLAISGLRSEDEADYYCVAWDDSLSGHWVFGGGTKLTVL
B5: M14-G07-29: antibody, Vh SEQ ID NO: 183, Vl SEQ ID NO: 184 (antibody, listed as Homo Sapiens, V domains shown)
VH: EVQLLESGGGLVQPGGSLRLSCAASGFRFSSYAMSWVRQAPGKGLEWVSGISGSGGSTYYADSVKGRFTISRDNSKNTLYLQMNSLRAEDTAVYYCARQGRTSFYLDVWGQGTLVTVSS
VL: QSVLTQPPSASGTPGQRVTISCSGSSSNIGAYYVYWYQQLPGTAPKLLIYDNNQRPSGVPDRFSGSKSGTSASLAISGLRSEDEADYYCVAWDWSWSGTWVFGGGTKLTVL
B6: M14-G07-30: antibody, Vh SEQ ID NO: 185, Vl SEQ ID NO: 186 (antibody, listed as Homo Sapiens, V domains shown)
VH: EVQLLESGGGLVQPGGSLRLSCAASGFTFSSYAMSWVRQAPGKGLEWVSGISGSGGSTYYADSVKGRFTISRDNSKNTLYLQMNSLRAEDTAVYYCARQGRTSFYLDVWGQGTLVTVSS
VL: QSVLTQPPSASGTPGQRVTISCSGSSRNIGSFYVYWYQQLPGTAPKLLIYDNNQRPSGVPDRFSGSKSGTSASLAISGLRSEDEADYYCVAWDDSLSGHWVFGGGTKLTVL
B7: M14-G07-2: antibody, Vh SEQ ID NO: 129, Vl SEQ ID NO: 130 (antibody, listed as Homo Sapiens, V domains shown)
VH: EVQLLESGGGLVQPGGSLRLSCAASGFTFSSYAMSWVRQAPGKGLEWVGGISGSGGSTYYADSVKGRFTISRDNSKNTLYLQMNSLRAEDTAVYYCARQGRTSFYLDVWGQGTLVTVSS
VL: QSVLTQPPSASGTPGQRVTISCCGSSRNIGSYYVYWYQQLPGTAPKLLIYDNNQRPSGVPDRFSGSKSGTSASLAISGLRSEDEADYYCVAWDDSWSGTWVFGGGTKLTVL
B8: M14-G07-33: antibody, Vh SEQ ID NO: 191, Vl SEQ ID NO: 192 (antibody, listed as Homo Sapiens, V domains shown)
VH: EVQLLESGGGLVQPGGSLRLSCAASGFRFSSYAMSWVRQAPGKGLEWVGGISGSGGSTYYADSVKGRFTISRDNSKNTLYLQMNSLRAEDTAVYYCARQGRTSFYLDVWGQGTLVTVSS
VL: QSVLTQPPSASGTPGQRVTISCSGSSRNIGAFYVYWYQQLPGTAPKLLIYDNNQRPSGVPDRFSGSKSGTSASLAISGLRSEDEADYYCVAWDWSYSGHWVFGGGTKLTVL
B9: M14-G07-31: antibody, Vh SEQ ID NO: 187, Vl SEQ ID NO: 188 (antibody, listed as Homo Sapiens, V domains shown)
VH: EVQLLESGGGLVQPGGSLRLSCAASGFTFSSYAMSWVRQAPGKGLEWVGGISGSGGSTYYADSVKGRFTISRDNSKNTLYLQMNSLRAEDTAVYYCARQGRTSFYLDVWGQGTLVTVSS
VL: QSVLTQPPSASGTPGQRVTISCSGSSSNIGAFYVYWYQQLPGTAPKLLIYDNNQRPSGVPDRFSGSKSGTSASLAISGLRSEDEADYYCVAWDWSLSGTWVFGGGTKLTVL
B10: M14-G07-1: antibody, Vh SEQ ID NO: 127, Vl SEQ ID NO: 128 (antibody, listed as Homo Sapiens, V domains shown)
VH: EVQLLESGGGLVQPGGSLRLSCAASGFRFSSYAMSWVRQAPGKGLEWVGGISGSGGSTYYADSVKGRFTISRDNSKNTLYLQMNSLRAEDTAVYYCARQGRTSFYLDVWGQGTLVTVSS
VL: QSVLTQPPSASGTPGQRVTISCSGSSRNIGSFYVYWYQQLPGTAPKLLIYDNNQRPSGVPDRFSGSKSGTSASLAISGLRSEDEADYYCVAWDDSWSGTWVFGGGTKLTVL

Experiment: ELISA-based activity assay of antibody variants without a competition step
Format: binding
Design: key: +++: Variants with an average ratio above reference plus 2×SD; +/−: variants with a ratio below reference minus 2×SD; ++: All variants with a performance in between both thresholds; −: Variants with a ratio below 0.5
Details: Table 10, multiple substitutions within M14-G07, variant to reference ratio (reference 2-fold improved over wt)
Experimental: To determine the activity of the mutated antibody variants on compound from Example 1K an equilibrium or dissociation limited ELISA assay format was used. Briefly, MTP plates (Nunc Maxisorp black, 460518) were coated with 4 μg/ml streptavidin (Calbiochem, 189730) diluted in coating buffer (Candor Bioscience GmbH, 121500) and incubated over night at 4° C. After washing with PBST, plates were blocked with 100% Smart Block (Candor Bioscience GmbH, 113500) in PBST for 1 h at room temperature and the washing step was repeated. Plates were incubated with compound from Example 1K at varying concentrations (0.3-200 nM) for 1 h at 37° C., washed with PBST and antibody fragments were immobilized by adding 25 μl of the crude bacterial cultures for 1 h at room temperature. After washing with PBST a competition step or the immediate detection was performed. […] For the detection of the residually bound Fabs a HRP-coupled anti-lambda antibody (Sigma, A5175) diluted in 10% Smart Block in PBST was added for 1 h at room temperature. After washing 10 μM Amplex Red (Invitrogen, A12222) were added and incubated for 10 to 30 min at room temperature followed by measurement of the fluorescence signal.
Provided in Table 9 are several examples of single and/or double amino acid substitutions introduced into the heavy and/or the light chain of M14-G07 (wt). Performance of the variants was analyzed in quadruples in the ELISA without a competition step and the FXa deinhibition assay (FXa DIA). In the ELISA, averages were calculated and normalized to the respective average expression level. Overall performance of variants was evaluated by comparing the variant to wt ratio from 2-3 independent experiments. Variants with an average ratio above wt plus 2×SD (standard deviation of the ratio) were considered as improved and are marked with “++”, whereas variants with a ratio below wt minus 2×SD were considered as reduced in their binding affinity and are marked with “−”. All variants with a performance in between both thresholds are marked with “+/−”. Variants with average fluorescence counts below the negative control (non-expressing cells) plus 3×SD were considered as non-binding and marked with “−−” with none of the variants fulfilling this criteria. In the FXa deinhibition assay averages were calculated and overall performance of variants was evaluated by comparing the variant to wt ratio from 2-3 independent experiments. Variants with an average ratio above wt plus 2×SD were considered as improved and are marked with “++”, whereas variants with a ratio below wt minus 2×SD were considered as either reduced in their binding affinity or non-binding and are marked with “−−”. All variants with a performance in between both thresholds are marked with “+/−”. Variants not analyzed are marked with “nd” (not determined). CDRs were defined according to Kabat.
Provided in Table 10 are examples of combined amino acid substitutions within M14-G07 antibodies. While not every combination is provided in Table 10, it is contemplated that the anti-rivaroxaban antibody may comprise any combination of modifications provided. Variant performance was analyzed in quadruples in the ELISA without a competition step. Averages were calculated, average background signals determined on a streptavidin coated plate without compound from Example 1K were subtracted if the compound from Example 1K concentration used for coating was below 10 nM and signals were normalized to the respective average expression level. Overall performance of variants was evaluated by comparing the variant to reference ratio from 2-3 independent experiments using a 2-fold improved reference variant as compared to wt. Variants with an average ratio above reference plus 2×SD are marked with “+++”, whereas variants with a ratio below reference minus 2×SD are marked with “+/−”. All variants with a performance in between both thresholds are marked with “++”. […]

Molecule	ELISA
B1	+++
B2	+++
B3	+++
B4	+++
B5	+++
B6	+++
B7	+++
B8	+++
B9	+++
B10	+++
